{
  "source": "FireProtDB (doi:10.1021/bi00093a001)",
  "proteins": {"B1": {"name": "Subtilisin-chymotrypsin inhibitor-2A wild type, P01053 (protein)", "chain": "MSSVEKKPEGVNTGAGDRHNLKTEWPELVGKSVEEAKKVILQDKPEAQIIVLPVGTIVTMEYRIDRVRLFVDKLDNIAQVPRVG"}},
  "details": "Hordeum vulgare, MES 450 mM, reversible: yes, whole UniProt chain shown; for Tm / unfolding enthalpy (calorimetric) / unfolding enthalpy (van 't Hoff): Thermal, DSC",
  "key": {"[1]": {"details": "pH 6.3, 25 °C, GdnHCl, Fluorescence"}},
  "data": [
    {"protein": "B1", "values": [
      {"measurement": "Tm", "setting": "pH 3", "result": 64, "unit": "°C"},
      {"measurement": "unfolding enthalpy (calorimetric)", "setting": "pH 3", "result": 61, "unit": "kcal/mol"},
      {"measurement": "unfolding enthalpy (van 't Hoff)", "setting": "pH 3", "result": 61.2, "unit": "kcal/mol"},
      {"measurement": "Tm", "setting": "pH 3.5", "result": 73.8, "unit": "°C"},
      {"measurement": "unfolding enthalpy (calorimetric)", "setting": "pH 3.5", "result": 67, "unit": "kcal/mol"},
      {"measurement": "unfolding enthalpy (van 't Hoff)", "setting": "pH 3.5", "result": 66.9, "unit": "kcal/mol"},
      {"measurement": "denaturant m value", "setting": "[1]", "result": 1.89, "unit": "kcal/mol/M"},
      {"measurement": "denaturant midpoint (higher = more stable)", "setting": "[1]", "result": 3.99, "unit": "M"},
      {"measurement": "unfolding free energy", "setting": "[1]", "result": 7.53, "unit": "kcal/mol"}
    ]}
  ]
}
